Test results as given in US20250154494A1, “Microfluidic Co-Encapsulation Device and System and Methods for Identifying T-Cell Receptor Ligands” (JANSSEN BIOTECH, INC., priority 2021, published 2025).

Assays:
Jurkat cells = assay: Droplet co-culture of B and T cells, CD69 surface expression by flow cytometry; type: cell-based
Experimental: One day prior to encapsulation, BOLETH cells were cultured in the presence of cognate or negative control peptides at a final concentration of 1 μM. Cells were collected the next day, centrifuged at 300 g for 5 min, then resuspended in B-cell medium at a final concentration of 1.4×10^7 cells/ml. These were further supplemented with same peptide and with or without EDTA. TCR-expressing Jurkat cells were centrifuged at 300 g and resuspended in B-cell medium at a concentration of 4×10^7 cells/ml. These were then further supplemented with respective concentrations of calcium. BOLETH, Jurkat, and detergent-containing fractions were connected to the microfluidic chip as described. Pressures were applied using an OB1 MK3+ and the droplet emulsion was collected into a 1.5 ml reaction tube containing oil.
Droplets were incubated at 37° C. in a 5% CO2 humidified incubator. Following overnight incubation, droplet emulsions were disrupted by adding two volumes of Pico-Break 1 (SPHERE FLUIDICS). Tubes were quickly inverted several times and centrifuged for 15 s at 300 rpm to facilitate separation of the cell-containing fraction. […] Tubes were centrifuged for 5 min at 300 g and cell pellets were subsequently resuspended in 100 μl of FACS buffer and were analyzed via flow cytometry. […]

Jurkat T cells = assay: Bulk plate co-culture of TCR-expressing Jurkat T cells with B cells presenting cognate peptide, CD69 surface expression; type: cell-based; conditions: Ca^2+ in equimolar concentration to EDTA in the medium
[1] = tested on: Jurkat and SKW3 reporter cells; assay: Co-culture of TT2-expressing P10-NBV reporter Jurkat and SKW3 cells with cognate minigene-transduced B cells overexpressing Flag-tagged surface receptors; type: cell-based; conditions: overexpression on minigene-transduced B cells
Source text: For the purpose of testing the different Flag-tagged surface receptors, InFusion-based cloning (TAKARA) was used to replace the mTagBFP2 reporter with the human codon optimized coding sequence of each candidate surface receptor, N-terminally or C-terminally tagged with a flexible 6× Flag to face the extracellular space. Specifically, the coding region of CD40, CD58, CD80, CD83, CD86, OX40L and 4-1BBL were cloned and tested.
Co-culture experiments were done using round bottom 96 well plates. P10-NBV Jurkat and SKW3 reporter cells and B cells are seeded 1 to 1 ratio into each well. Next day the cells are spun down and stained for Flow cytometry.

BOLETH cells [2] = assay: Labeling of BOLETH cells with scFv-containing supernatant of transfected HEK293 cells, flow cytometry; type: cell-based; conditions: for signal strength in tandem (T2A) scFv constructs relative to single scFv constructs: αCD19-HA and αCD20-V5 in one expression construct
Source text: Current generation T cell reporter systems consists of a cis-regulatory element comprising multiple copies of a synthetic promoter sequence (‘NBV’). […] The scFv is derived from a monoclonal αCD19-antibody (clone B43) binding to the B cell-specific transmembrane protein CD19, which is commonly used in monoclonal antibody-mediated immunotherapy (Uckun et al., 1988, Blood, 71(1):13-29). It is tagged with six HA epitope tags at its C-terminus, which facilitates its detection by flow cytometry. To optimize the current reporter and B cell labeling strategy, the potential of additional scFvs was tested. In particular, an αCD20-scFv derived from a human monoclonal antibody was evaluated that recognizes an epitope encompassing the membrane-proximal small-loop on the CD20 molecule, known as ofatumumab (clone 2F2) (Teeling et al., 2004, Blood, 104(6):1793-800). In order to test its functionality, scFv constructs were assembled in both the VH-VL and VL-VH configuration. The heavy and light chain domains were separated by a flexible polypeptide linker (G4S)3. To confirm that ofatumumab, as an scFv tagged with four copies of the V5 label, a small epitope-tag found on P and V proteins of the paramyxovirus, can efficiently label BOLETH cells and be detected by flow cytometry, the coding region was inserted into a CMV expression plasmid. HEK293 cells were transfected with the construct using TurboFect. As a negative control, HEK293 cells were transfected with a sfGFP-containing construct. Medium was exchanged 24 hours post-transfection. The scFv-containing supernatant (SN) was collected 72 hours post-transfection and was used to label BOLETH cells. Using fluorescent dye-conjugated antibodies recognizing the tagged scFvs, the amount of B cell bound scFv was measured by flow cytometry (FIG. 8A).
For optimizing scFv reporter constructs, constructs containing combinations of B43 and 2F2 tagged with either HA or V5 were cloned in pTwist CMV WPRE Neo BetaGlobin. For testing, HEK cells were transiently transfected with the plasmids using TurboFect (Fermentas). […]

CD19 on BOLETH cells [3] = target: T1, CD19 on BOLETH cells (UniProt P15391 20-556, limits assumed); assay: flow cytometry; BOLETH cells stained with supernatant of HEK cells transfected with tandem (T2A) constructs, anti-HA antibody
T1 construct: whole, on cells; also called B cell-specific transmembrane protein CD19
T1 sequence (looked up): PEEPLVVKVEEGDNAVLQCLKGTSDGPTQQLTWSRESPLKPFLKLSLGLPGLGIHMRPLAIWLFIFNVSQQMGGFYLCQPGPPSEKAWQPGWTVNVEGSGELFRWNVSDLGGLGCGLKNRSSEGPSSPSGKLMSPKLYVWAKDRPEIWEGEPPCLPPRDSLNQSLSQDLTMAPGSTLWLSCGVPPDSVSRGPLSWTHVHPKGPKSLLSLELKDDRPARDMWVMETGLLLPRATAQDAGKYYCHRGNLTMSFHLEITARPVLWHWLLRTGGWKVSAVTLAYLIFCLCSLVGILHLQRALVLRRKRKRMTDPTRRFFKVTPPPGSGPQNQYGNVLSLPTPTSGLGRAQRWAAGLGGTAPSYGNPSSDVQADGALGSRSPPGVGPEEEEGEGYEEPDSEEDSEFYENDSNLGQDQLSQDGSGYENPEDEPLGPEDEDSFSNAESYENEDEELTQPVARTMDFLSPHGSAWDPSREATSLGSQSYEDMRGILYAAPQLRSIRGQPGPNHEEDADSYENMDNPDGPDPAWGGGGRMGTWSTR

CD19 on BOLETH cells [4] = target: T1, CD19 on BOLETH cells; assay: flow cytometry; scFv secreted by Jurkat TT2 reporter cells in co-culture with BOLETH cells, 0.1 nM-10 µM cognate peptide
BOLETH cells [5] = assay: Co-culture of Jurkat TT2 scFv reporter cells with BOLETH cells in presence of cognate peptide, flow cytometry; type: cell-based; conditions: 0.1 nM-10 μM cognate peptide; versus V5-tagged αCD20-scFv

With O=C(O)CN(CCN(CC(=O)O)CC(=O)O)CC(=O)O [EDTA] the “T-cell activation in presence of EDTA (chelation of calcium from the media)” value (Jurkat cells; EDTA without added calcium) was “T-cell activation is inhibited”.

[Ca+2] [Ca^2+] was tested, and the “T cell activation measured by CD69 surface expression in droplets” value (Jurkat cells; 8 mM Ca^2+ in T cell suspension, 2 mM EDTA in B cell suspension) was “rescues Ca^2+ dependent T cell activation” and the “T cell activation measured by surface expression of CD69” value (Jurkat T cells) was “fully restores T cell activation”.

In the case of “4-1BBL: Flag-tagged surface receptor overexpressed on minigene-transduced B cells; SEQ ID NO:85”, the “minigene-based T cell activation” value [1] is reported as “potentiates minigene-based T cell activation”.

B1: αCD19-HA: secreted scFv derived from monoclonal αCD19 antibody clone B43, six HA epitope tags at C-terminus; SEQ ID NO:39 (protein)
scFv: EVQLVQSGAEVKKPGSSVKVSCKASGYAFSSYWMNWVRQAPGQGLEWMGQIWPGDSDTNYAQKFQGRVTITADESTSTAYMELSSLRSEDTAVYYCARRETTTVGRYYYAMDYWGQGTTVTVSSGGGGSGGGGSGGGGSDIQLTQSPSFLSASVGDRVTITCKASQSVDYSGDSYLNWYQQKPGKAPKLLIYDASNLVSGVPSRFSGSGSGTEFTLTISSLQPEDFATYYCQQSTENPWTFGGGTKLEIK
modifications: 6x HA tag
In the case of B1, the “HA MFI, HA-tagged αCD19 scFv compared to HA-tagged αCD20 scFv” value (BOLETH cells [2]; HEK supernatant staining of B cells) is reported as “higher MFIs”, the “signal strength in tandem (T2A) scFv constructs relative to single scFv constructs” value (BOLETH cells [2]) is reported as “remains unchanged” and the “signal strength in tandem (T2A) scFv constructs relative to single scFv constructs” value (BOLETH cells [2]; listed as αCD19 scFv) is reported as “retains similar binding capacity”.

B2: OX40L: Flag-tagged surface receptor overexpressed on minigene-transduced B cells; SEQ ID NO:84 (protein)
chain: ERVQPLEENVGNAARPRFERNKLLLVASVIQGLGLLLCFTYICLHFSALQVSHRYPRIQSIKVQFTEYKKEKGFILTSQKEDEIMKVQNNSVIINCDGFYLISLKGYFSQEVNISLHYQKDEEPLFQLKKVRSVNSLMVASLTYKDKVYLNVTTDNTSLDDFHVNGGELILIHQNPGEFCVLGSGAGGSGSGAGGSGDYKDDDDKGAGSGDYKDDDDKGAGSDYKDDDDKGGAGSDYKDDDDKGSGDYKDDDDKGAGSGDYKDDDDKGSGAGGSS
modifications: Flag tag
In the case of B2, the “minigene-based T cell activation” value [1] is reported as “potentiates minigene-based T cell activation”.

B3: αCD19-scFv (clone B43), VH-VL, tagged with six HA epitope tags at its C-terminus (scFv)
scFv: EVQLVQSGAEVKKPGSSVKVSCKASGYAFSSYWMNWVRQAPGQGLEWMGQIWPGDSDTNYAQKFQGRVTITADESTSTAYMELSSLRSEDTAVYYCARRETTTVGRYYYAMDYWGQGTTVTVSSGGGGSGGGGSGGGGSDIQLTQSPSFLSASVGDRVTITCKASQSVDYSGDSYLNWYQQKPGKAPKLLIYDASNLVSGVPSRFSGSGSGTEFTLTISSLQPEDFATYYCQQSTENPWTFGGGTKLEIKGAGSYPYDVPDYAGAGSYPYDVPDYAGGSYPYDVPDYAGGAGSYPYDVPDYAGAGSYPYDVPDYAGAGSYPYDVPDYAG
notes: also called αCD19-HA; B43-HA
B3: binds (CD19 on BOLETH cells [3]).

B4: αCD19-scFv (clone B43), four-times V5-tagged (scFv)
scFv: EVQLVQSGAEVKKPGSSVKVSCKASGYAFSSYWMNWVRQAPGQGLEWMGQIWPGDSDTNYAQKFQGRVTITADESTSTAYMELSSLRSEDTAVYYCARRETTTVGRYYYAMDYWGQGTTVTVSSGGGGSGGGGSGGGGSDIQLTQSPSFLSASVGDRVTITCKASQSVDYSGDSYLNWYQQKPGKAPKLLIYDASNLVSGVPSRFSGSGSGTEFTLTISSLQPEDFATYYCQQSTENPWTFGGGTKLEIKGKPIPNPLLGLDSTGAGSGGKPIPNPLLGLDSTGAGSGGKPIPNPLLGLDSTGGAGSGGKPIPNPLLGLDSTGSGAGGSSL
notes: also called αCD19-scFv V5-tagged
With B4 the “fold reduction in MFI compared to V5-tagged αCD20-scFv (VLVH)” value (CD19 on BOLETH cells [4]) was ~5 fold.

B5: αCD19-scFv V5-tagged: αCD19 scFv (clone B43) with four-times V5 tag (protein)
scFv: B4 scFv
For B5, the “reduction in MFI” value (BOLETH cells [5]) was “about 5 fold”.
